Source: article PMC10080908 (BMC Biology, 2023)

How the values were obtained:
UBE2D2 = target: T1, UBE2D2 (human, UniProt P62837 1-147); test: pull-down; in vitro: GST-RING domains on beads with UBE2D2, with or without UBXN7-UAS; Coomassie staining; conditions: both partners purified
T1 construct: UBE2D2 without GST; probably released from GST-UBE2D2 by GST-3C protease as told in general for the PGEX4T3-3C constructs; also called recombinant UBE2D2; source: recombinant

[1] = target: T2, UBXN7-UAS recombinant protein (human, UniProt O94888 94-284); test: as above; conditions: both partners purified
T2 construct: UAS domain of human UBXN7 (aa 94-284); also called UAS domain; source: E. coli BL21, purified (Glutathione Sepharose, released by GST-3C protease)
T2 sequence (looked up): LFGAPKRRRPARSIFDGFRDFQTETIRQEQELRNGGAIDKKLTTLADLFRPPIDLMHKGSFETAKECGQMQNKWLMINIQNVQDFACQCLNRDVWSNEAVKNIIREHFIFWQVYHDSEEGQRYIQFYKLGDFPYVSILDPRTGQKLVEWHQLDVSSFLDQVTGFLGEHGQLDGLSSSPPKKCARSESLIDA

- binding result (UBE2D2): binds
- binding result [1]: binds
B1: GST-TOPORS-RING (domain or fragment, human, UniProt Q9NS56 68-176, looked up)
chain: MASAAKEFKMDNFSPKAGTSKLQQTVPADASPDSKCPICLDRFDNVSYLDRCLHKFCFRCVQEWSKNKAECPLCKQPFDSIFHSVRAEDDFKEYVLRPSYNGSFVTPDR
notes: human TOPORS-RING (aa 68-176); the methods tell its cloning into p3xFlag-CMV-10 only, not into the GST vector; also called minimal RING domain of TOPORS; TOPORS RING domain; source: recombinant, on Glutathione Sepharose
